This passage reports Activity results from patent US20050032180A1, “Method for the production of (r)-and (s)-8-chloro-6-hydroxy-octanic acid alkyl esters by enzymatic reduction” (priority 2001, published 2005).

This test is described as follows: analytical assay of enzyme activity with compounds of the formula I as substrate. Format: biochemical. How it is done: The configuration of the resulting 8-chloro-6-hydroxyoctanoic acid alkyl esters is determined by the enzyme employed. Thus, reduction of 8-chloro-6-oxooctanoic acid alkyl esters using alcohol dehydrogenase from Thermoanaeorubium brokii results in enantiopure (R)-8-chloro-6-hydroxyoctanoic acid alkyl esters. In the case of reduction using Lactobacillus brevis alcohol dehydrogenase, there is enantioselective formation of (S)-8-chloro-6-hydroxyoctanoic acid alkyl esters (ee>65%).

B1: TBADH: Thermoanaerobium brokii ADH, commercially available (protein, UniProt P14941 1-352, looked up)
NADP-dependent isopropanol …: MKGFAMLSIGKVGWIEKEKPAPGPFDAIVRPLAVAPCTSDIHTVFEGAIGERHNMILGHEAVGEVVEVGSEVKDFKPGDRVVVPAITPDWRTSEVQRGYHQHSGGMLAGWKFSNVKDGVFGEFFHVNDADMNLAHLPKEIPLEAAVMIPDMMTTGFHGAELADIELGATVAVLGIGPVGLMAVAGAKLRGAGRIIAVGSRPVCVDAAKYYGATDIVNYKDGPIESQIMNLTEGKGVDAAIIAGGNADIMATAVKIVKPGGTIANVNYFGEGEVLPVPRLEWGCGMAHKTIKGGLCPGGRLRMERLIDLVFYKRVDPSKLVTHVFRGFDNIEKAFMLMKDKPKDLIKPVVILA
In the case of B1, under “Standard 2-butanone, cofactor NADP(H), 50 mM Tris, 1 mM DTT, pH 7.8, HCO2Na, FDH, 37° C.”, the Activity is listed as 6%.

B2: LKADH: Lactobacillus kefir ADH, commercially available (protein, UniProt Q6WVP7 1-252, looked up)
NADP-dependent (R)-specific …: MTDRLKGKVAIVTGGTLGIGLAIADKFVEEGAKVVITGRHADVGEKAAKSIGGTDVIRFVQHDASDEAGWTKLFDTTEEAFGPVTTVVNNAGIAVSKSVEDTTTEEWRKLLSVNLDGVFFGTRLGIQRMKNKGLGASIINMSSIEGFVGDPTLGAYNASKGAVRIMSKSAALDCALKDYDVRVNTVHPGYIKTPLVDDLEGAEEMMSQRTKTPMGHIGEPNDIAWICVYLASDESKFATGAEFVVDGGYTAQ
For the molecule B2, under “Standard acetophenone, cofactor NADP(H), 50 mM Kpi, 0.1 mM MgCl2, pH 7.0, iso-propanol 200 mM”, the Activity was found to be 10%.

B3: Y-ADH: yeast alcohol dehydrogenase, commercially available (protein, UniProt P00330 2-348, looked up)
Alcohol dehydrogenase 1: SIPETQKGVIFYESHGKLEYKDIPVPKPKANELLINVKYSGVCHTDLHAWHGDWPLPVKLPLVGGHEGAGVVVGMGENVKGWKIGDYAGIKWLNGSCMACEYCELGNESNCPHADLSGYTHDGSFQQYATADAVQAAHIPQGTDLAQVAPILCAGITVYKALKSANLMAGHWVAISGAAGGLGSLAVQYAKAMGYRVLGIDGGEGKEELFRSIGGEVFIDFTKEKDIVGAVLKATDGGAHGVINVSVSEAAIEASTRYVRANGTTVLVGMPAGAKCCSDVFNQVVKSISIVGSYVGNRADTREALDFFARGLVKSPIKVVGLSTLPEIYEKMEKGQIVGRYVVDTSK
Take B3: the Activity (Standard 2-butanone, cofactor NAD(H), 100 mM TEA, pH 7.0) is on record as 20%.
